In test [1] the target is T1, BTM protein (synthetic fusion protein of the highly conserved extracellular portion of MUC16^c57-114 fused to … (human, UniProt Q8WXI7 14394-14451)).
T1 construct: domain: highly conserved extracellular portion of MUC16^c57-114; also called MUC16 BTM protein; Muc16 BTM protein; not shown: human Fc (pFUSE backbone)
T1 sequence: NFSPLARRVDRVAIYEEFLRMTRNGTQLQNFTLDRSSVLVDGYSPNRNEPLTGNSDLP
As to the kind of experiment: SPR, BiaCore X100, His-tagged EXT170-8 BiTEDs immobilised on an NTA sensor chip, MUC16 BTM protein injected at 35.625 to 570 nM, 1:1 binding model [d]. The procedure: (§1) Kinetic Analysis of BiTEDs binding to MUC16^ecto. The kinetic analysis of EXT170-8 BiTEDs and Muc16 BTM protein (55mer highly conserved ectodomain region of MUC16) was performed on a BiaCore X100 instrument loaded with an NTA sensor chip. EXT170-8 BiTED comprises the amino acid of SEQ ID NO: 89 and the leader sequence of SEQ ID NO: 93.
(§2) The raw data was analyzed using the kinetic model 1:1 binding by Biacore X100 evaluation software.

The target of test [2] is T1, BTM protein (synthetic fusion protein …). As to the kind of experiment: SPR (BiaCore X100), His-tagged BiTED on NTA chip, BTM as analyte, 1:1 model. The protocol:
as §1, §2
MUC16^ecto-BiTEDs were purified and confirmed by SDS-page (FIG. 1(c)). To determine the binding affinity of BiTEDs to MUC16^ecto, a previously validated BTM protein (a synthetic fusion protein consisting of the highly conserved extracellular portion of MUC16^c57-114 fused to a human Fc backbone pFUSE) was used, and kinetic analysis was performed using surface plasmon resonance.
(In general: In SPR one partner is held on a chip, and binding of the other changes the refractive index at the surface.)

B1: EXT170-8 BiTED (MUC16^ecto-specific Bispecific T-cell engaging diabody, Clone 8 (LH)/anti-CD3 bispecific antibody) (bispecific antibody)
chain: DIQLTQSPSAVSASVGDRVTITCRASQDVSKWLAWYQQKPGKAPRLLISAASGLQSWVPSRFSGSGSGTEFTLSISSLQPEDFATYYCQQANSFPWTFGQGTKVEIKRSRGGGGSGGGGSGGGGSLEMAQVQLQQWGAGLLKPSETLSLTCAVYGGSFSGYYWSWIRQPPGKGLEWIGEINHSGSTNYNPSLKSRVTISVDTSKNQFSLKLSSVTAADTAVYYCARQSYITDSWGQGTLVTVSSTSGGGGSDVQLVQSGAEVKKPGASVKVSCKASGYTFTRYTMHWVRQAPGQGLEWIGYINPSRGYTNYADSVKGRFTITTDKSTSTAYMELSSLRSEDTATYYCARYYDDHYCLDYWGQGTTVTVSSGEGTSTGSGGSGGSGGADDIVLTQSPATLSLSPGERATLSCRASQSVSYMNWYQQKPGKAPKRWIYDTSKVASGVPARFSGSGSGTDYSLTINSLEAEDAATYYCQQWSSNPLTFGGGTKVEIKHHHHHH
notes: The molecule was His-tagged in SPR and biotinylated in ELISA; also called MUC16^ecto-BiTEDs; EXT170-8 BiTEDs
Take B1: in test [1], the koff (in general, the rate constant with which the complex falls apart) was 0.0157 s⁻¹ and the kon (in general, a measure of how fast the partners come together) worked out at 224000 M⁻¹ s⁻¹. Further, the Kd (usually the equilibrium constant for the complex coming apart) in test [2] is 69.9 nM.

(Values after patent US20240174764A1 (Memorial Sloan Kettering, published 2024).)
